The record followed here is paper doi:10.1101/2022.07.21.500383 (bioRxiv, 2022).

Usually Kd stands for the free concentration of one partner at which half of the binding sites on the other are occupied at equilibrium, for simple one-to-one binding. The low end stands for a tighter complex, the high end for a looser complex.

Holding throughout (assay): ITC
For experiment [1], the target named is IL-11_(Δ10/PAIDY)/IL-11Rα_(D1-D3) binary complex (human) (UniProt P20809).
In experiment [2] the target is IL-11_(Δ10/W147A)/IL-11Rα_(D1-D3) binary complex (human) (UniProt P20809).
Experiment [3] addresses T1, IL-11Δ10/IL-11Rα_(D1-D3) binary complex (human, UniProt P20809 32-199; Q14626 23-317).
T1 sequence 1: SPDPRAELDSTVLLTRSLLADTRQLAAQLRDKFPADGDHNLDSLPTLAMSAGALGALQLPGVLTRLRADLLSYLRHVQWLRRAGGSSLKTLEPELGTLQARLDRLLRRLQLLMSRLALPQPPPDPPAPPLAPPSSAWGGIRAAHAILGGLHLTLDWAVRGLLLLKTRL
T1 sequence 2: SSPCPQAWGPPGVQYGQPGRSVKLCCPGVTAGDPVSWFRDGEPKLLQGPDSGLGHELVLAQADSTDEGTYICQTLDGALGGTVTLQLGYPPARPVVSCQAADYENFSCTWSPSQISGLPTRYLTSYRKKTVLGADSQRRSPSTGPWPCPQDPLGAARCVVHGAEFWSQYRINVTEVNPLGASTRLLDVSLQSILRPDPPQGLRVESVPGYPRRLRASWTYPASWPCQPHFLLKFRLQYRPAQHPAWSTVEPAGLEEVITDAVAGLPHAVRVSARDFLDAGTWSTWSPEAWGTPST

Experiment [4] concerns the target IL-11_(Δ10/Mutein)/IL-11Rα_(D1-D3) binary complex (human) (UniProt P20809).

B1: gp130_(D2-D3) (receptor, human, UniProt P40189 123-325, looked up)
chain: GLPPEKPKNLSCIVNEGKKMRCEWDGGRETHLETNFTLKSEWATHKFADCKAKRDTPTSCTVDYSTVYFVNIEVWVEAENALGKVTSDHINFDPVYKVKPNPPHNLSVINSEELSSILKLTWTNPSIKSVIILKYNIQYRTKDASTWSQIPPEDTASTRSSFTVQDLKPFTEYVFRIRCMKEDGKGYWSDWSEEASGITYEDR
Consider B1, for which the Kd in experiment [1] is 60 nM; in experiment [2], 130 nM; in experiment [3] it was 380 nM. The molecule further showed a dH in experiment [3] of 6.45 kcal/mol.

B2: gp130EC (complete extracellular domains of gp130, D1-D6) (receptor, human, UniProt P40189 23-619, looked up)
chain: ELLDPCGYISPESPVVQLHSNFTAVCVLKEKCMDYFHVNANYIVWKTNHFTIPKEQYTIINRTASSVTFTDIASLNIQLTCNILTFGQLEQNVYGITIISGLPPEKPKNLSCIVNEGKKMRCEWDGGRETHLETNFTLKSEWATHKFADCKAKRDTPTSCTVDYSTVYFVNIEVWVEAENALGKVTSDHINFDPVYKVKPNPPHNLSVINSEELSSILKLTWTNPSIKSVIILKYNIQYRTKDASTWSQIPPEDTASTRSSFTVQDLKPFTEYVFRIRCMKEDGKGYWSDWSEEASGITYEDRPSKAPSFWYKIDPSHTQGYRTVQLVWKTLPPFEANGKILDYEVTLTRWKSHLQNYTVNATKLTVNLTNDRYLATLTVRNLVGKSDAAVLTIPACDFQATHPVMDLKAFPKDNMLWVEWTTPRESVKKYILEWCVLSDKAPCITDWQQEDGTVHRTYLRGNLAESKCYLITVTPVYADGPGSPESIKAYLKQAPPSKGPTVRTKKVGKNEAVLEWDQLPVDVQNGFIRNYTIFYRTIIGNETAVNVDSSHTEYTLSSLTSDTLYMVRMAAYTDEGGKDGPEFTFTTPKFAQGEIE
modifications: N-linked glycans at N21, N61, N135 (visible in the structures)
For B2, the dH in experiment [3] was -4.78 kcal/mol.

B3: gp130_(D1-D3) (cytokine binding domains of gp130) (receptor, human)
chain: ELLDPCGYISPESPVVQLHSNFTAVCVLKEKCMDYFHVNANYIVWKTNHFTIPKEQYTIINRTASSVTFTDIASLNIQLTCNILTFGQLEQNVYGITIISGLPPEKPKNLSCIVNEGKKMRCEWDGGRETHLETNFTLKSEWATHKFADCKAKRDTPTSCTVDYSTVYFVNIEVWVEAENALGKVTSDHINFDPVYKVKPNPPHNLSVINSEELSSILKLTWTNPSIKSVIILKYNIQYRTKDASTWSQIPPEDTASTRSSFTVQDLKPFTEYVFRIRCMKEDGKGYWSDWSEEASGITYEDR
modifications: N-linked glycans at N21, N61, N135 (visible in the structures)
As to B3, the Kd in experiment [4] amounted to 55 nM; in experiment [1] it was 20 nM; in experiment [3], 3 nM. This molecule also showed a dH in experiment [3] of -8.13 kcal/mol.
